What was measured:
[1] = target: PKA (protein kinase A) catalytic unit, Promega; assay: cell-based or functional assay
PP2A Phosphatase = PP2A Phosphatase (Homo sapiens, UniProt P67775); assay: Okadaic acid PP2A phosphatase inhibition, Fe(III) fluorescence quench assay; format: biochemical; details: PP2A 22 milli Units, 30 μM Lissamine Rhodamine phospho Kemptide, 60 minutes, 96-well; read-out: calculated IC50
Text: Okadaic Acid, another phosphatase inhibitor, solubilized in DMSO, was titrated in triplicate in phosphatase dilution buffer over 24 wells in white 96-well polystyrene COSTAR plate. […] The results are illustrated in FIG. 10.

PP2A Phosphatase, sequence (P67775 whole entry): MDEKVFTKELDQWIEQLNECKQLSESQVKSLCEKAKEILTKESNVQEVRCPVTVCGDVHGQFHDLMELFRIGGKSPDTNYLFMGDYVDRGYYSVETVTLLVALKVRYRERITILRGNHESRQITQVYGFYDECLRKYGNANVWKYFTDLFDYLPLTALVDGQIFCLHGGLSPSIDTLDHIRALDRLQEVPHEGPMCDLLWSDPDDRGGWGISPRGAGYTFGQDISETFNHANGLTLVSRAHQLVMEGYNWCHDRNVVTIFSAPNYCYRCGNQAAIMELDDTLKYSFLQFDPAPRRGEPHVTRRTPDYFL

Row | Molecule | IC50 of inhibition of PKA kinase activity (phosphorylation of Lissamine Rhodamine-labeled Kemptide, Fe(III) fluorescence quench readout) [1] [nM] | IC50 (PP2A Phosphatase) [nM]
1 | PKI, a known synthetic peptide inhibitor of PKA | 2.6 | –
2 | C=C1[C@@H](O)[C@@H]2O[C@]3(CC[C@H](/C=C/[C@@H](C)[C@@H]4CC(C)=C[C@@]5(O[C@H](C[C@@](C)(O)C(=O)O)CC[C@H]5O)O4)O3)CC[C@H]2O[C@@H]1[C@@H](O)C[C@H](C)[C@H]1O[C@@]2(CCCCO2)CC[C@H]1C [Okadaic Acid] | – | 1.5
